# Test results taken from the supplement of paper PMC10567573.
# B1: PTPRD (parent)
# chain: MVHVARLLLLLLTFFLRTDAETPP
# Variants of: B1
# Assay: protein stability index of a GFP-peptide fusion (GPS, HEK-293T) (PSI 1-6); higher = more stable
# Conditions: c terminus: a fixed tail appended
# 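Further: lentivirally expressed fusions sorted by FACS into six bins by GFP to DsRed ratio, PSI derived from sequencing read proportions per bin multiplied by bin number.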
row,Variant,protein stability index
1,MVHVARNLLLLLTFFLRTDAETPP,3.02
2,MVHVARILLLLLTFFLRTDAETPP,3.46
3,MVHVARKLLLLLTFFLRTDAETPP,3.28
4,MVHVARPLLLLLTFFLRTDAETPP,1.74
5,MVHVARRLLLLLTFFLRTDAETPP,2.75
6,MVHVARYLLLLLTFFLRTDAETPP,2.55
7,MVHVARSLLLLLTFFLRTDAETPP,2.15
8,MVHVARELLLLLTFFLRTDAETPP,1.36
9,MVHVARGLLLLLTFFLRTDAETPP,4.57
10,MVHVARLCLLLLTFFLRTDAETPP,1.89
11,MVHVARLYLLLLTFFLRTDAETPP,3.46
12,MVHVARLILLLLTFFLRTDAETPP,2.58
13,MVHVARLFLLLLTFFLRTDAETPP,2.82
14,MVHVARLRLLLLTFFLRTDAETPP,2.45
15,MVHVARLLLLLLTFFLRTDAETPQ,3.53
16,MVHVARLLLLLLTFFLRTDAETPD,2.73
17,MVHVARLLLLLLTFFLRTDAETPY,2.67
18,MVHVARLLLLLLTFFLRTDAETPL,2.27
19,MVHVARLLLLLLTFFLRTDAETPA,3.4
20,MVHVARLLLLLLTFFLRTDAETPF,1.99
21,MVHVARLLLLLLTFFLRTDAETPN,1.73
22,MVHVARLLLLLLTFFLRTDAETPT,3.52
23,MVHVARLLLLLLTFFLRTDAETPI,2.26
24,MVHVARLLLLLLTFFLRTDAETPS,4.91

row,Variant,protein stability index
1,MVHVARLLLLLLTFFLRTDAETPV,2.77
2,MVTVARLLLLLLTFFLRTDAETPP,3.21
3,MVMVARLLLLLLTFFLRTDAETPP,2.86
4,MVKVARLLLLLLTFFLRTDAETPP,1.78
5,MVLVARLLLLLLTFFLRTDAETPP,2.27
6,MVHVARLLLLLLTFFLRTDLETPP,2.99
7,MVHVARLLLLLLTFFLRTDDETPP,1.29
8,MVHVARLLLLLLTFFLRTDIETPP,1.81
9,MVHVARLLLLLLTFFLRTDGETPP,1.84
10,MVHVARLLLLLLTFFLRTDEETPP,2.48
11,MVHVARLLLLLLTFFLRTDFETPP,1.84
12,MVHVARLLLLLLTFFLRTDQETPP,2.29
13,MVHVAFLLLLLLTFFLRTDAETPP,1.74
14,MVHVAELLLLLLTFFLRTDAETPP,3.41
15,MVHVALLLLLLLTFFLRTDAETPP,1.9
16,MVHVAVLLLLLLTFFLRTDAETPP,2.29
17,MVHVAQLLLLLLTFFLRTDAETPP,3.99
18,MVHVAILLLLLLTFFLRTDAETPP,1.13
19,MVHVAHLLLLLLTFFLRTDAETPP,3.34
20,MVHVAMLLLLLLTFFLRTDAETPP,1.76
21,MVHVAKLLLLLLTFFLRTDAETPP,1.67
22,MVHVASLLLLLLTFFLRTDAETPP,1.88
23,TVHVARLLLLLLTFFLRTDAETPP,2.87
24,EVHVARLLLLLLTFFLRTDAETPP,2.33

row,Variant,protein stability index
1,KVHVARLLLLLLTFFLRTDAETPP,2.28
2,LVHVARLLLLLLTFFLRTDAETPP,1.52
3,YVHVARLLLLLLTFFLRTDAETPP,3.9
4,HVHVARLLLLLLTFFLRTDAETPP,1.82
5,QVHVARLLLLLLTFFLRTDAETPP,2.33
6,IVHVARLLLLLLTFFLRTDAETPP,3.05
7,MVHVQRLLLLLLTFFLRTDAETPP,2.34
8,MVHVYRLLLLLLTFFLRTDAETPP,2.6
9,MVHVLRLLLLLLTFFLRTDAETPP,3.83
10,MVHVFRLLLLLLTFFLRTDAETPP,3.28
11,MVHVRRLLLLLLTFFLRTDAETPP,1.78
12,MVHVCRLLLLLLTFFLRTDAETPP,2.97
13,MVHVARLLLLLLTEFLRTDAETPP,1.57
14,MVHVARLLLLLLTCFLRTDAETPP,1.47
15,MVHVARLLLLLLTNFLRTDAETPP,2.07
16,MVHVARLLLLLLTAFLRTDAETPP,1.93
17,MVHVARLLLLLLTRFLRTDAETPP,1.98
18,MVHVARLLLLLLTLFLRTDAETPP,1.98
19,MVHVARLLLLLLTKFLRTDAETPP,1.61
20,MVHVARLLLLLLTGFLRTDAETPP,1.48
21,MVHVARLLLLLLTQFLRTDAETPP,2.15
22,MVHVARLLLLLLTHFLRTDAETPP,1.25
23,MVHVARLLLLLLTPFLRTDAETPP,2.45
24,MVHVARLLLLLLTYFLRTDAETPP,1.86

row,Variant,protein stability index
1,MVHVARLLLLLLTDFLRTDAETPP,1.79
2,MVHVARLLLLLLTFFLRTDAEWPP,5.11
3,MVHVARLLLLLLTFFLRTDAESPP,4.07
4,MVHVARLLLLLLTFFLRTDAEEPP,2.08
5,MVHVARLLLLLLTFFLRTDAEVPP,3.03
6,MVHVARLLLLLLTFFLRTDAEFPP,1.95
7,MVHVARLLLLLLTFFLRTDAEHPP,2.36
8,MVHVARLLLLLLTFFLRTDAERPP,3.51
9,MVHNARLLLLLLTFFLRTDAETPP,2.68
10,MVHIARLLLLLLTFFLRTDAETPP,1.41
11,MVHCARLLLLLLTFFLRTDAETPP,3.07
12,MVHSARLLLLLLTFFLRTDAETPP,2.46
13,MVHLARLLLLLLTFFLRTDAETPP,3.81
14,MVHVARLLLKLLTFFLRTDAETPP,2.83
15,MVHVARLLLQLLTFFLRTDAETPP,1.57
16,MVHVARLLLTLLTFFLRTDAETPP,1.24
17,MVHVARLLLCLLTFFLRTDAETPP,2.04
18,MVHVARLLLYLLTFFLRTDAETPP,1.66
19,MVHVARLLLDLLTFFLRTDAETPP,1.67
20,MVHVARLLLRLLTFFLRTDAETPP,2.14
21,MVHVARLLLMLLTFFLRTDAETPP,2.42
22,MVHVARLLLNLLTFFLRTDAETPP,2.71
23,MVHVARLLLPLLTFFLRTDAETPP,3.02
24,MVHVARLLLWLLTFFLRTDAETPP,1.93

row,Variant,protein stability index
1,MVHVARLLLLLLTFELRTDAETPP,2.21
2,MVHVARLLLLLLTFILRTDAETPP,2.25
3,MVHVARLLLLLLTFMLRTDAETPP,2.34
4,MVHVARLLLLLLTFHLRTDAETPP,4.29
5,MVHVARLLLLLLTFYLRTDAETPP,3
6,MVHVARLLLLLLTFVLRTDAETPP,2.2
7,MVHVARLLLLLLTFFLRVDAETPP,2.63
8,MVHVARLLLLLLTFFLRFDAETPP,3.28
9,MVHVARLLLLLLTFFLRNDAETPP,2.38
10,MVHVARLLLLLLTFFLREDAETPP,2.04
11,MVHVARLLLLLLTFFLRSDAETPP,2.48
12,MVHVARLLLLLLTFFLRRDAETPP,3.3
13,MVHVARLLLLLLTFFLRYDAETPP,2.88
14,MVHVARLLLLLLTFFLRDDAETPP,2.18
15,MVHVARLLFLLLTFFLRTDAETPP,2.89
16,MVHVARLLRLLLTFFLRTDAETPP,1.88
17,MVHVARLLHLLLTFFLRTDAETPP,1.53
18,MVHVARLLNLLLTFFLRTDAETPP,1.58
19,MVHVARLLALLLTFFLRTDAETPP,2.04
20,MVHVARLLILLLTFFLRTDAETPP,2.95
21,MVHVARLLWLLLTFFLRTDAETPP,2.29
22,MVHVARLLYLLLTFFLRTDAETPP,2.74
23,MVHVARLLQLLLTFFLRTDAETPP,1.8
24,MVHVARLLTLLLTFFLRTDAETPP,3.23

row,Variant,protein stability index
1,MVHVARLLLLPLTFFLRTDAETPP,3.92
2,MVHVARLLLLELTFFLRTDAETPP,1.62
3,MVHVARLLLLWLTFFLRTDAETPP,3.02
4,MVHVARLLLLNLTFFLRTDAETPP,3.99
5,MVHVARLLLLHLTFFLRTDAETPP,1.97
6,MVHVARLLLLILTFFLRTDAETPP,2.14
7,MVHVARLLLLKLTFFLRTDAETPP,1.69
8,MVHVARLLLLVLTFFLRTDAETPP,1.84
9,MVHVARLLLLMLTFFLRTDAETPP,3.56
10,MNHVARLLLLLLTFFLRTDAETPP,1.79
11,MCHVARLLLLLLTFFLRTDAETPP,2.73
12,MAHVARLLLLLLTFFLRTDAETPP,2.85
13,MRHVARLLLLLLTFFLRTDAETPP,2.51
14,MPHVARLLLLLLTFFLRTDAETPP,1.93
15,MQHVARLLLLLLTFFLRTDAETPP,1.88
16,MSHVARLLLLLLTFFLRTDAETPP,2.4
17,MVHVARLLLLLLTFFLRTDAETYP,3.76
18,MVHVARLLLLLLTFFLRTDAETAP,2.42
19,MVHVARLLLLLLTFFLRTDAETEP,2.31
20,MVHVARLLLLLLTFFLRTDAETSP,2.84
21,MVHVARLLLLLLTFFLRTDAETMP,2.86
22,MVHVARLLLLLLTFFLRTDAETRP,3.55
23,MVHVARLLLLLLTFFLRTDAETFP,2.96
24,MVHVARLLLLLLTFFLRTDAVTPP,2.83

row,Variant,protein stability index
1,MVHVARLLLLLLTFFLRTDAYTPP,2.55
2,MVHVARLLLLLLTFFLRTDAQTPP,4.35
3,MVHVARLLLLLLTFFLRTDAKTPP,2.66
4,MVHVARLLLLLLTFFLRTDACTPP,2.82
5,MVHVARLLLLLLTFFLRTDAFTPP,3.22
6,MVHVARLLLLLLTFFLRTDALTPP,2.79
7,MVHVARLLLLLLTFFLRTDAATPP,3.13
8,MVHVARLLLLLNTFFLRTDAETPP,2.12
9,MVHVARLLLLLKTFFLRTDAETPP,2.63
10,MVHVARLLLLLITFFLRTDAETPP,2.03
11,MVHVARLLLLLVTFFLRTDAETPP,1.57
12,MVHVARLLLLLSTFFLRTDAETPP,2.3
13,MVHVARLLLLLETFFLRTDAETPP,2.51
14,MVHVARLLLLLYTFFLRTDAETPP,3.69
15,MVHVARLLLLLWTFFLRTDAETPP,2.53
16,MVHVARLLLLLDTFFLRTDAETPP,1.57
17,MVHVARLLLLLQTFFLRTDAETPP,2.2
18,MVHVARLLLLLLTFFLYTDAETPP,2.3
19,MVHVARLLLLLLTFFLETDAETPP,1.62
20,MVHVARLLLLLLTFFLQTDAETPP,1.92
21,MVHVARLLLLLLTFFLTTDAETPP,2.79
22,MVHVARLLLLLLTFFLFTDAETPP,2.87
23,MVHVARLLLLLLTFFLPTDAETPP,1.87
24,MVHVARLLLLLLTFFLDTDAETPP,2.22

row,Variant,protein stability index
1,MVHVARLLLLLLTFFLLTDAETPP,2.77
2,MVHVARLLLLLLTFFLRTCAETPP,4.03
3,MVHVARLLLLLLTFFLRTNAETPP,2.96
4,MVHVARLLLLLLTFFLRTIAETPP,2.41
5,MVHVARLLLLLLTFFLRTFAETPP,3.69
6,MVHVARLLLLLLNFFLRTDAETPP,2.05
7,MVHVARLLLLLLRFFLRTDAETPP,2.04
8,MVHVARLLLLLLIFFLRTDAETPP,4.2
9,MVHVARLLLLLLHFFLRTDAETPP,1.77
10,MVHVARLLLLLLSFFLRTDAETPP,2.31
11,MVHVARLLLLLLWFFLRTDAETPP,3.29
12,MVHVARLLLLLLTFFQRTDAETPP,1.74
13,MVHVARLLLLLLTFFPRTDAETPP,2.65
14,MVHVARLLLLLLTFFKRTDAETPP,1.72
15,MVHVARLLLLLLTFFGRTDAETPP,2.65
16,MVHVARLLLLLLTFFSRTDAETPP,2.22
17,MVHVARLLLLLLTFFMRTDAETPP,4.18
18,MVHVARLLLLLLTFFHRTDAETPP,2.35
19,MVHVARLLLLLLTFFTRTDAETPP,2.68
20,MVHVARLLLLLLTFFFRTDAETPP,1.37
